# Reference: PMC5059719, “Tetrameric structure of the restriction DNA glycosylase R.PabI in complex with nonspecific double-stranded DNA” (Scientific Reports, 2016)
# Where a chain is given by its changes, count along the chain named.
# T1: R.PabI Y68F (Pyrococcus abyssi, UniProt Q9V2B6 8-226, Y68F)
# T1 sequence: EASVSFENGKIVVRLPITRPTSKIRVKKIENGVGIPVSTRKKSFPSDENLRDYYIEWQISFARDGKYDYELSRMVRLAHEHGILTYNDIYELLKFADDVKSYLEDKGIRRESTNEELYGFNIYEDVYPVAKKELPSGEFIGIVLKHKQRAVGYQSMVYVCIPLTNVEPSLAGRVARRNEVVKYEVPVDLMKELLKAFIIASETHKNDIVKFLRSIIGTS
# T2: R.PabI R32A E63A (Pyrococcus abyssi, UniProt Q9V2B6 8-226, R32A;E63A)
# T2 sequence: T1 sequence with R25A, E56A, F61Y
# T3: R.PabI Y68F R70D (Pyrococcus abyssi, UniProt Q9V2B6 8-226, Y68F;R70D)
# T3 sequence: T1 sequence with R63D
# T4: R.PabI Y68F R70D D71R (Pyrococcus abyssi, UniProt Q9V2B6 8-226, Y68F;R70D;D71R)
# T4 sequence: T1 sequence with R63D, D64R
# T5: R.PabI Y68F D71R (Pyrococcus abyssi, UniProt Q9V2B6 8-226, Y68F;D71R)
# T5 sequence: T1 sequence with D64R
# B1: 20 bp specific probe (GTAC) (dsDNA)
# DNA 1: GCATAGCTGTACAGCTATGC
# DNA 2: GCATAGCTGTACAGCTATGC
# B2: 20 bp nonspecific dsDNA (co-crystallization) (dsDNA)
# DNA 1: GCACTAGTTCGAACTAGTGC
# DNA 2: GCACTAGTTCGAACTAGTGC
# B3: 20 bp nonspecific probe (same sequence as co-crystallization) (dsDNA)
# DNA 1: GCACTAGTTCGAACTAGTGC
# DNA 2: GCACTAGTTCGAACTAGTGC
# B4: 20 bp nonspecific probe without GT, TA, AC steps (dsDNA)
# DNA 1: GCATCGATTCGAATCGATGC
# DNA 2: GCATCGATTCGAATCGATGC
# Key:
# R.PabI Y68F [1] = molecular target: T1, R.PabI Y68F; assay: EMSA; dimer shift at low concentration, supershift at high; poly-dT competitor; EMSA: 0.1 uM DNA, 0.1-12.8 uM R.PabI dimer, 10 mM MES pH 6.0, 300 mM NaCl, 50 uM poly-dT (40 nt) competitor, 30 min at 4 C; 12% PAGE in 0.5x TBE at 4 C; conditions: protein: recombinant; chain copies: 2; label: 5'-fluorescein; blunt; self-complementary, 2 copies of S3
# R.PabI R32A E63A = molecular target: T2, R.PabI R32A E63A; assay: X-ray crystallography; 1.9 A; tetramer sandwiches dsDNA; 0.2 M calcium acetate, 0.1 M imidazole pH 8.0, 10% PEG8000; EMSA: 0.1 uM DNA, 0.1-12.8 uM R.PabI dimer, 10 mM MES pH 6.0, 300 mM NaCl, 50 uM poly-dT (40 nt) competitor, 30 min at 4 C; 12% PAGE in 0.5x TBE at 4 C; conditions: protein: recombinant; chain copies: 4; blunt; self-complementary, 2 copies of S1
# R.PabI Y68F R70D = molecular target: T3, R.PabI Y68F R70D; assay: EMSA; supershift only, about the same as Y68F; poly-dT competitor; EMSA: 0.1 uM DNA, 0.1-12.8 uM R.PabI dimer, 10 mM MES pH 6.0, 300 mM NaCl, 50 uM poly-dT (40 nt) competitor, 30 min at 4 C; 12% PAGE in 0.5x TBE at 4 C; conditions: protein: recombinant; chain copies: 4; label: 5'-fluorescein; blunt; self-complementary, 2 copies of S1
# R.PabI Y68F R70D D71R = molecular target: T4, R.PabI Y68F R70D D71R; assay: EMSA; similar to Y68F; poly-dT competitor; EMSA: 0.1 uM DNA, 0.1-12.8 uM R.PabI dimer, 10 mM MES pH 6.0, 300 mM NaCl, 50 uM poly-dT (40 nt) competitor, 30 min at 4 C; 12% PAGE in 0.5x TBE at 4 C; conditions: protein: recombinant; chain copies: 4; label: 5'-fluorescein; blunt; self-complementary, 2 copies of S1
# R.PabI Y68F D71R = molecular target: T5, R.PabI Y68F D71R; assay: EMSA; dimer shift at 0.2-1.6 uM plus supershift; tetramerization inhibited; poly-dT competitor; EMSA: 0.1 uM DNA, 0.1-12.8 uM R.PabI dimer, 10 mM MES pH 6.0, 300 mM NaCl, 50 uM poly-dT (40 nt) competitor, 30 min at 4 C; 12% PAGE in 0.5x TBE at 4 C; conditions: protein: recombinant; chain copies: 2; label: 5'-fluorescein; blunt; self-complementary, 2 copies of S1
# R.PabI Y68F [2] = molecular target: T1, R.PabI Y68F; assay: EMSA; predominant supershift (tetramer), dimer band very weak; poly-dT competitor; EMSA: 0.1 uM DNA, 0.1-12.8 uM R.PabI dimer, 10 mM MES pH 6.0, 300 mM NaCl, 50 uM poly-dT (40 nt) competitor, 30 min at 4 C; 12% PAGE in 0.5x TBE at 4 C; conditions: protein: recombinant; chain copies: 2; label: 5'-fluorescein; blunt; self-complementary, 2 copies of S1
# R.PabI Y68F [3] = molecular target: T1, R.PabI Y68F; assay: EMSA; about the same binding as co-crystallization DNA; poly-dT competitor; EMSA: 0.1 uM DNA, 0.1-12.8 uM R.PabI dimer, 10 mM MES pH 6.0, 300 mM NaCl, 50 uM poly-dT (40 nt) competitor, 30 min at 4 C; 12% PAGE in 0.5x TBE at 4 C; conditions: protein: recombinant; chain copies: 2; label: 5'-fluorescein; blunt; self-complementary, 2 copies of S2
binder,measurement,setting,value
B1,binding result,R.PabI Y68F [1],binds
B2,binding result,R.PabI R32A E63A,binds
B3,binding result,R.PabI Y68F R70D,binds
same,binding result,R.PabI Y68F R70D D71R,binds
same,binding result,R.PabI Y68F D71R,binds
same,binding result,R.PabI Y68F [2],binds
B4,binding result,R.PabI Y68F [3],binds
